B1: KCNG1 (parent)
chain: AVNLSVSTLPSLREEEEQVRAHAP
B2: JUNB (parent)
chain: FVKALDDLHKMNHVTPPNVSLGAT
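Note: lentivirally expressed fusions sorted by FACS into six bins by GFP to DsRed ratio, PSI derived from sequencing read proportions per bin multiplied by bin number.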

One data set covers variants of B1. In words: protein stability index of a GFP-peptide fusion (GPS, HEK-293T) (PSI 1-6); higher = more stable. The following applies: c terminus: a fixed tail appended.
Turning to AVNLFVSTLPSLREEEEQVRAHAP [S5F], the protein stability index was 3.79. The same measure, in the same setting: under AVNLEVSTLPSLREEEEQVRAHAP [S5E] stands 5.33; under AVNLCVSTLPSLREEEEQVRAHAP [S5C], 4.65. With AVNLAVSTLPSLREEEEQVRAHAP [S5A], the protein stability index amounted to 5.48.

Turning to AVNLDVSTLPSLREEEEQVRAHAP [S5D], the protein stability index was determined as 5.24. On the same count and under the same terms, under MVNLSVSTLPSLREEEEQVRAHAP [A1M] stands 4.61; under RVNLSVSTLPSLREEEEQVRAHAP [A1R], 5.31. On the same count and under the same terms, under KVNLSVSTLPSLREEEEQVRAHAP [A1K] stands 5.28; under VVNLSVSTLPSLREEEEQVRAHAP [A1V], 4.39. The same measure, in the same setting: as for QVNLSVSTLPSLREEEEQVRAHAP [A1Q], the figure is 4.28; as for NVNLSVSTLPSLREEEEQVRAHAP [A1N], 5.02. For HVNLSVSTLPSLREEEEQVRAHAP [A1H], the protein stability index worked out at 5.12. TVNLSVSTLPSLREEEEQVRAHAP [A1T]: the protein stability index was 5.46.

Consider IVNLSVSTLPSLREEEEQVRAHAP [A1I], for which the protein stability index was found to be 4.48. Turning to LVNLSVSTLPSLREEEEQVRAHAP [A1L], the protein stability index turned out to be 4.14. The same measure, in the same setting: as for GVNLSVSTLPSLREEEEQVRAHAP [A1G], the figure is 4.96; as for WVNLSVSTLPSLREEEEQVRAHAP [A1W], 3.81. In the case of FVNLSVSTLPSLREEEEQVRAHAP [A1F], the protein stability index came to 2.57.

For PVNLSVSTLPSLREEEEQVRAHAP [A1P], the protein stability index was 5.12. Still for that read-out and setting: under YVNLSVSTLPSLREEEEQVRAHAP [A1Y] stands 2.47; under EVNLSVSTLPSLREEEEQVRAHAP [A1E], 4.75; under CVNLSVSTLPSLREEEEQVRAHAP [A1C], 5. Take DVNLSVSTLPSLREEEEQVRAHAP [A1D]: the protein stability index was 5.52.

On to SVNLSVSTLPSLREEEEQVRAHAP [A1S], for which the protein stability index worked out at 4.82. On to AVNMSVSTLPSLREEEEQVRAHAP [L4M], for which the protein stability index worked out at 5.05. With AVNVSVSTLPSLREEEEQVRAHAP [L4V], the protein stability index was found to be 5.01. The same measure, in the same setting: under AVNSSVSTLPSLREEEEQVRAHAP [L4S] stands 5.05. The same measure, in the same setting: as for AVNESVSTLPSLREEEEQVRAHAP [L4E], the figure is 5.73. Still for that read-out and setting: as for AVNQSVSTLPSLREEEEQVRAHAP [L4Q], the figure is 5.44.

For the variant AVNYSVSTLPSLREEEEQVRAHAP [L4Y], the protein stability index amounted to 4.98.

For the variant AVNASVSTLPSLREEEEQVRAHAP [L4A], the protein stability index is 4.86. Same read-out and setting: as for AVNWSVSTLPSLREEEEQVRAHAP [L4W], the figure is 4.45; as for AVNDSVSTLPSLREEEEQVRAHAP [L4D], 5.58. For the variant AVNKSVSTLPSLREEEEQVRAHAP [L4K], the protein stability index came out at 5.24. On the same count and under the same terms, under AVNCSVSTLPSLREEEEQVRAHAP [L4C] stands 4.88. Take AVNISVSTLPSLREEEEQVRAHAP [L4I]: the protein stability index was 4.8.

For the variant AVNFSVSTLPSLREEEEQVRAHAP [L4F], the protein stability index amounted to 4.51. Turning to AVNNSVSTLPSLREEEEQVRAHAP [L4N], the protein stability index was 5.55. Still for that read-out and setting: as for AVNRSVSTLPSLREEEEQVRAHAP [L4R], the figure is 5.03. The same measure, in the same setting: under AVNGSVSTLPSLREEEEQVRAHAP [L4G] stands 5.24; under AVNPSVSTLPSLREEEEQVRAHAP [L4P], 5.32; under AVNHSVSTLPSLREEEEQVRAHAP [L4H], 5.72. For the variant AVNTSVSTLPSLREEEEQVRAHAP [L4T], the protein stability index is 4.9.

APNLSVSTLPSLREEEEQVRAHAP [V2P]: the protein stability index is 5.57. On the same count and under the same terms, as for ATNLSVSTLPSLREEEEQVRAHAP [V2T], the figure is 5.23.

With AANLSVSTLPSLREEEEQVRAHAP [V2A], the protein stability index was found to be 5.6.

For ARNLSVSTLPSLREEEEQVRAHAP [V2R], the protein stability index worked out at 5.04. With AGNLSVSTLPSLREEEEQVRAHAP [V2G], the protein stability index turned out to be 5.46.

As to AENLSVSTLPSLREEEEQVRAHAP [V2E], the protein stability index stood at 5.39. On the same count and under the same terms, under AWNLSVSTLPSLREEEEQVRAHAP [V2W] stands 4.1. On the same count and under the same terms, under AYNLSVSTLPSLREEEEQVRAHAP [V2Y] stands 4.93. The same measure, in the same setting: under ALNLSVSTLPSLREEEEQVRAHAP [V2L] stands 5.04; under ADNLSVSTLPSLREEEEQVRAHAP [V2D], 5.64; under AINLSVSTLPSLREEEEQVRAHAP [V2I], 4.89.

For ACNLSVSTLPSLREEEEQVRAHAP [V2C], the protein stability index came to 4.98. ASNLSVSTLPSLREEEEQVRAHAP [V2S]: the protein stability index was 5.41. Regarding AKNLSVSTLPSLREEEEQVRAHAP [V2K], the protein stability index turned out to be 5.63. Same read-out and setting: as for ANNLSVSTLPSLREEEEQVRAHAP [V2N], the figure is 5.59; as for AHNLSVSTLPSLREEEEQVRAHAP [V2H], 5.54; as for AFNLSVSTLPSLREEEEQVRAHAP [V2F], 4.83. Same read-out and setting: as for AMNLSVSTLPSLREEEEQVRAHAP [V2M], the figure is 4.79.

With AQNLSVSTLPSLREEEEQVRAHAP [V2Q], the protein stability index was found to be 5.33. On the same count and under the same terms, as for AVHLSVSTLPSLREEEEQVRAHAP [N3H], the figure is 4.72. Turning to AVLLSVSTLPSLREEEEQVRAHAP [N3L], the protein stability index is 2.41. Take AVILSVSTLPSLREEEEQVRAHAP [N3I]: the protein stability index was 3.05.

Consider AVWLSVSTLPSLREEEEQVRAHAP [N3W], for which the protein stability index is 3.66. Still for that read-out and setting: under AVALSVSTLPSLREEEEQVRAHAP [N3A] stands 4.75; under AVELSVSTLPSLREEEEQVRAHAP [N3E], 5.73. As for AVSLSVSTLPSLREEEEQVRAHAP [N3S], the protein stability index turned out to be 4.87. For AVRLSVSTLPSLREEEEQVRAHAP [N3R], the protein stability index turned out to be 4.83. Same read-out and setting: under AVMLSVSTLPSLREEEEQVRAHAP [N3M] stands 4.37; under AVDLSVSTLPSLREEEEQVRAHAP [N3D], 5.26. Still for that read-out and setting: as for AVQLSVSTLPSLREEEEQVRAHAP [N3Q], the figure is 4.77; as for AVVLSVSTLPSLREEEEQVRAHAP [N3V], 3.06; as for AVGLSVSTLPSLREEEEQVRAHAP [N3G], 5.03. The same measure, in the same setting: under AVCLSVSTLPSLREEEEQVRAHAP [N3C] stands 4.45. Regarding AVFLSVSTLPSLREEEEQVRAHAP [N3F], the protein stability index was determined as 3.02. Same read-out and setting: as for AVYLSVSTLPSLREEEEQVRAHAP [N3Y], the figure is 3.66; as for AVTLSVSTLPSLREEEEQVRAHAP [N3T], 4.75; as for AVPLSVSTLPSLREEEEQVRAHAP [N3P], 5.25. Take AVKLSVSTLPSLREEEEQVRAHAP [N3K]: the protein stability index was 4.43.

Another data set covers variants of B2. Described as above. The following applies: c terminus: a fixed tail appended.
With FVKALDDLHKMNHVTPPNVSWGAT [L21W], the protein stability index was determined as 1.95.

Consider FVKALDDLHKMNHVTPPNVSRGAT [L21R], for which the protein stability index worked out at 2.15.

Turning to FVKALDDLHKMNHVTPPNVSMGAT [L21M], the protein stability index is 2.16. Still for that read-out and setting: as for FVKALDDLHKMNHVTPPNVSDGAT [L21D], the figure is 2.51; as for FVKALDDLHKMNHVTPPNVSNGAT [L21N], 1.89. On to FVKALDDLHKMNHVTPPNVSQGAT [L21Q], for which the protein stability index was 2.36. In the case of FVKALDDLHKMNHVTPPNVSPGAT [L21P], the protein stability index stood at 1.96. Still for that read-out and setting: as for FVKALDDLHKMNHVTPPNVSTGAT [L21T], the figure is 1.78; as for FVKALDDLHKMNHVTPPNVSFGAT [L21F], 2.09.

Turning to FVKALDDLHKMNHVTPPNVSAGAT [L21A], the protein stability index was 2.17. On the same count and under the same terms, under FVKALDDLHKMNHVTPPNVSGGAT [L21G] stands 2.54; under FVKALDDLHKMNHVTPPNVSSGAT [L21S], 2.25. Same read-out and setting: under FVKALDDLHKMNHVTPPNVSIGAT [L21I] stands 1.9.

Source of the values: the supplement of paper PMC10567573.
